Data: patent US10087225B2, “Formulation of MK2 inhibitor peptides” (MOERAE MATRIX, INC., priority 2015, dated 2018)

Tests used:
FGFR2(N549H)(h) = FGFR2(N549H)(h) (Homo sapiens, UniProt P21802, N549H); experiment: Kinase Profiling Assay; type: biochemical
HCAVSMCs [1] = experiment: Cytosolic vs. organelle bound peptide by digitonin semi-permeabilization; type: cell-based, human; conditions: Bafilomycin treatment
Description: In order to quantify the cytosolic bioavailability of the MK2i and HSP20 peptides a method to separate cytosolic and organelle bound (i.e. endosomal, lysosomal, golgi, etc.) peptide was adapted from the methods developed by Liu et a140. The procedure was optimized for this experiment based upon LDH release from HCAVSMCs treated with varying concentrations of digitonin (Calbiochem) in buffer (150 mM NaCl, 0.2 mM EDTA, 20 mM HEPES-NaOH (pH 7.4), 2 mM DTT and 2 mM MgCL2) on ice for 10 mins on a rotary shaker operating at 100 RPM (supplementary FIG. 3). A concentration of 25 μg/mL was then chosen as the optimal digitonin concentration for selective semi-permeabilization of the HCAVSMC membrane and subsequently used for the analysis of intracellular peptide distribution.
To quantify intracellular distribution of the MK2i and p-HSP20 peptides, HCAVSMCs were seeded into a 96 well plate at a density of 20,000 cells/cm2 and allowed to adhere overnight in complete growth medium. A portion of the cells were pretreated with 500 nM Bafilomycin A1 (Sigma) for 30 minutes, and the Bafilomycin was included in subsequent peptide/NP treatment and in the post-treatment incubation phase to inhibit endosomal acidification. […] Treatments were removed and cells were incubated in fresh medium with or without 500 nM Bafilomycin A1 for 6 hours. […]

HCAVSMCs [2] = experiment: Flow cytometric uptake and retention of MK2i-NPs and p-HSP20-NPs (30 min treatment); conditions: 3 days after treatment removal
Description: For MK2i-NP and HSP20-NP studies, An amine-reactive Alexa-488 succinimidyl ester (Life Technologies) was dissolved in DMSO and mixed at a 1 to 3 molar ratio with the MK2i or p-HSP20 peptide in 100 mM sodium bicarbonate buffer (pH=8.3) and allowed to react for 3 hours. Unreacted fluorophore and organic solvent were removed using a PD-10 miditrap G-10 desalting column, and the fluorescently labeled MK2i and p-HSP20 peptides were lyophilized. […] Similarly, PPAA was mixed with fluorescently labeled p-HSP20 at a CR of [NH3^+]/[COO^−]=1:3 and syringe filtered through a 0.45 μm PTFE filter to form fluorescent HSP20-NPs. HCAVSMCs were grown to 80-90% confluence, harvested, and seeded at 20,000 cells/well in a 24 well plate and allowed to adhere overnight. […] Following treatment, cells were washed 2× in PBS, and either immediately harvested or incubated in complete growth media for an additional 72 hours. Cells were harvested with 0.05% trypsin-EDTA, centrifuged, and suspended in 0.1% Trypan blue in PBS (−/−) for analysis on a FACSCalibur flow cytometer (Becton Dickinson) with BD CellQuest™ Pro software (V 5.2). Data was exported and analyzed with FlowJo software (V 7.6.4). All samples were run in triplicate.

CDK2/cyclinE(h) = CDK2/cyclinE(h) (Homo sapiens, UniProt P24941); experiment: Kinase Profiling Assay; type: biochemical; conditions: 100 μM
MEK1(h) = MEK1(h) (Homo sapiens, UniProt Q02750); experiment: Kinase Profiling Assay; type: biochemical; conditions: 100 μM
SAPK2a(h) = SAPK2a(h) (Homo sapiens, UniProt Q16539); experiment: Kinase Profiling Assay; type: biochemical; conditions: 100 μM
Chain of SAPK2a(h) (Q16539 whole entry): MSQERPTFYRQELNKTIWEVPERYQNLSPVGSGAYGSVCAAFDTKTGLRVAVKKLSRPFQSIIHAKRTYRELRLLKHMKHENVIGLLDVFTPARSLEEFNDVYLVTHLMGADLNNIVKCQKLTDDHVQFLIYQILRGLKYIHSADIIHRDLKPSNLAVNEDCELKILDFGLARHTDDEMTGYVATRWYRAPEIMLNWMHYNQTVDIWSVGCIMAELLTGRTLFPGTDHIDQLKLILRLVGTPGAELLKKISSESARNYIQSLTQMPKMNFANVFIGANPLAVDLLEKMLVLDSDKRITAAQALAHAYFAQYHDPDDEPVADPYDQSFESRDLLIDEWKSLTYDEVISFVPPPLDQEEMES

CK2α2(h) = CK2α2(h) (Homo sapiens, UniProt P19784); experiment: Kinase Profiling Assay; type: biochemical; conditions: 100 μM
Chain of CK2α2(h) (P19784 whole entry): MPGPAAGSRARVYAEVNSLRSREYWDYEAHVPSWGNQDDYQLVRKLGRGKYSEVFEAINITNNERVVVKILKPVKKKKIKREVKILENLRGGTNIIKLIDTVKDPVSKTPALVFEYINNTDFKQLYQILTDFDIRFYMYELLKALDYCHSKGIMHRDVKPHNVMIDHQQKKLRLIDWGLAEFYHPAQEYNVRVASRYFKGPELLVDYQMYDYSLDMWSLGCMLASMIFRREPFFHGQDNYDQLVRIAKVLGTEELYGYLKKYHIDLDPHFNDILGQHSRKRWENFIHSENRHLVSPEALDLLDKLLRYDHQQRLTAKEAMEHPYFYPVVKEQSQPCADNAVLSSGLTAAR

CLK2(h) = CLK2(h) (Homo sapiens, UniProt P49760); experiment: Kinase Profiling Assay; type: biochemical; conditions: 100 μM
Chain of CLK2(h) (P49760 whole entry): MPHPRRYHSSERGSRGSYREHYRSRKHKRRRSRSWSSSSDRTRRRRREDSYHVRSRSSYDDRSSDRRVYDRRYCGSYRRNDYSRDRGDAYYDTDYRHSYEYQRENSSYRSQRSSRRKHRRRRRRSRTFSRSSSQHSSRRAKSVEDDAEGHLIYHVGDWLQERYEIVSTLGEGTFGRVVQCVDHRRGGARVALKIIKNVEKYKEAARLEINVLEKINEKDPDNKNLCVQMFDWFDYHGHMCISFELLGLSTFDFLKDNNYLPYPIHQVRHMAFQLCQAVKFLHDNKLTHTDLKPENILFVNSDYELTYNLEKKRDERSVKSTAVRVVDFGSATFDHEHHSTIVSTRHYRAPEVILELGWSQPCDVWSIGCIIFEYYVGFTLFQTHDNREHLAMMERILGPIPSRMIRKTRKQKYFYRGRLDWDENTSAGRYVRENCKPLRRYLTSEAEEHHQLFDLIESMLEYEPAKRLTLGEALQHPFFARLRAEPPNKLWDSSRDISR

Fgr(h) = Fgr(h) (Homo sapiens, UniProt P09769); experiment: Kinase Profiling Assay; type: biochemical; conditions: 100 μM
Yes(h) = Yes(h) (Homo sapiens, UniProt P07947); experiment: Kinase Profiling Assay; type: biochemical; conditions: 100 μM
Chain of Yes(h) (P07947 whole entry): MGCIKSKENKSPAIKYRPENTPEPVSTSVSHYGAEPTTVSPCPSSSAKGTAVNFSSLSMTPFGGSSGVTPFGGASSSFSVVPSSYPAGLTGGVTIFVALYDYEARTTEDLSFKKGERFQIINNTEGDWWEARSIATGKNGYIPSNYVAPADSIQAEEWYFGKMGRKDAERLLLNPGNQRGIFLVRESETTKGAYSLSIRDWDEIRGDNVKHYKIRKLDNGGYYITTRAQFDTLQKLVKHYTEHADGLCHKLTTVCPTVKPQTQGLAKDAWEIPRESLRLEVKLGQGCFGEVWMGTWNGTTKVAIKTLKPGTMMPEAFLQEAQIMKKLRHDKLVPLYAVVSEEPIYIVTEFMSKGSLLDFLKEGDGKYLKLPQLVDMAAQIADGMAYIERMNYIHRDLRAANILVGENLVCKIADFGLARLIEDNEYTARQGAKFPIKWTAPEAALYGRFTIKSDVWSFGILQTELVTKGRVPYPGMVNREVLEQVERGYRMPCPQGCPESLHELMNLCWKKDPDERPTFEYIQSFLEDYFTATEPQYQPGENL

Chain of FGFR2(N549H)(h) (P21802 22-821 N549H): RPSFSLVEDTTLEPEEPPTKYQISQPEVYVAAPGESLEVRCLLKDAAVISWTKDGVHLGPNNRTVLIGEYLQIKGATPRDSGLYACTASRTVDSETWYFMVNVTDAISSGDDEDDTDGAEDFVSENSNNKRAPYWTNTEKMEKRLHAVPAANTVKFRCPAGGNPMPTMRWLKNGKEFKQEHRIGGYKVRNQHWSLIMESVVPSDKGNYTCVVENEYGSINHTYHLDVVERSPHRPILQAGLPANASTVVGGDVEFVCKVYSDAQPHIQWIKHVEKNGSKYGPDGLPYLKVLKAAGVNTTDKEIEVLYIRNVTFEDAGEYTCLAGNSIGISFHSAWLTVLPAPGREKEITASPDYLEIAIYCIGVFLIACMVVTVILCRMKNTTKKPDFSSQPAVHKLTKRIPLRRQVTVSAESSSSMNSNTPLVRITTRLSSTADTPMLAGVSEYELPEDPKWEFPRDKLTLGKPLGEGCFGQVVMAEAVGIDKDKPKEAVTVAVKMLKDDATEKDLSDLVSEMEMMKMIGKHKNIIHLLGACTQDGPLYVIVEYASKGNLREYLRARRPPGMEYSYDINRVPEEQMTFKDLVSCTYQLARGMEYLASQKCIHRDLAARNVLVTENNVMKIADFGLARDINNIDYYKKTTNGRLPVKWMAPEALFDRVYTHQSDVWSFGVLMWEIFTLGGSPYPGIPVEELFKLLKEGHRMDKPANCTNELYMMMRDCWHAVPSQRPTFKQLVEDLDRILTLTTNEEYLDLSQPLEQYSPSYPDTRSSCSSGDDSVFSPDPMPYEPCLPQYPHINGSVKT

## H-YARAAARQARAKALARQLGVAA-OH [MMI-0100]
FGFR2(N549H)(h)
  activity at 100 µM: 95%
HCAVSMCs [1]
  cytosolic fraction of internalized free peptide: 9.64%±8.17%
HCAVSMCs [2]
  intracellular peptide retention (% of initial uptake remaining): 54%

## HRRIKAWLKKIKALARQLGVAA (Mammalian) [MMI-0500]
CDK2/cyclinE(h)
  % activity: 19%
MEK1(h)
  % activity: 21%
SAPK2a(h)
  % activity: 52%

## YARAAARQARAKALNRQLGVA (Mammalian) [MMI-0200]
CK2α2(h)
  % activity: 88%
CLK2(h)
  % activity: 97%
Fgr(h)
  % activity: 71%
Yes(h)
  % activity: 93%
